In the test the test system is G-T mismatch in a test plasmid. Put plainly: MMR activity of MLH1 variants (MLH1-PMS2 expressed in HEK293T cells). Conditions: >3 independent experiments; for DNA mismatch repair activity of MLH1 variant (in words): variant MLH1 + PMS2 transfected in HEK293T, relative to wildtype, 37°C, 15 min; for effect of second p.Arg385 alteration on the MMR defect of p.Tyr750Arg: double variants (Figure 6D). The format is biochemical, human. The method, then: Sequence variants of the MLH1 expression vector were generated using the Q5 site directed mutagenesis system (New England Biolabs, Ipswich, MA, USA) with the appropriate primers (Supplementary Table S1).
Mismatch repair activity was assessed as described in detail before ([79],[81]) (Supplementary Figure S3). […] Mismatched DNA plasmid substrate (Supplementary Figure S3) prepared according to previously published procedures ([81–83]) was added, and reactions in a final volume of 25 μl were incubated at 37°C for 15 min. Repair efficiency was scored by purifying the mismatched DNA plasmid from the reaction and assessing the fraction of homoduplex sequence by restriction digestion of the mismatched site using EcoRV. The substrate was additionally linearized with AseI.
Figure 2. Expression and DNA mismatch repair activity of human and artificial ConMot variants. […] As a negative control, one sample was only transfected with an EGFP. After 48 h, native whole cell protein extracts were prepared. Expression was assessed by SDS-PAGE and western blotting. (A) Representative western blot of MLH1 wildtype and variant expressions. Average expression levels of MLH1 of > 5 independent transfections were determined and are given in the bar diagram below. (B) The extracts of the transfections were used to assess the DNA mismatch repair activities of the variant MLH1 proteins in comparison with wildtype (WT) MLH1-PMS2 as detailed in Materials and Methods and as shown in Supplementary Figure S3. The EGFP-transfected extract sample served as negative control. Representative agarose gels are shown in the top panel.
Figure 3. Analysis of the relevance of ConMot core and surrounding sequences. MLH1 proteins containing either the wildtype human ConMot motif sequence or variants were directly compared concerning expression and MMR activity. (A) Comparison of the ConMot variants used: the core-scramble variant sequence, the full-scramble variant sequence and an animal-plant hybrid that contains the ConMot consensus sequence of plants as it exists, for example, in walnut and mungo bean (Vigna radiata and Juglans regia). (B) Comparison of conservation in the animal versus plant ConMot in WebLogo representation. Specific differences in conservation within the sequences flanking the core MVRTD sequence are marked by red arrows above the animal sequence. (C) Western blot of the expression of the different MLH1-ConMot wildtype (WT) and the variants shown in A after transfection in HEK293T cells; negative control: transfection of EGFP. (D) MMR activities were assessed in direct comparison to negative control and wildtype human MLH1 as in Figure 2B. Average activities and standard deviations were calculated from >3 independent experiments.
Figure 6. The MMR defect of p.Tyr750Arg is partly compensated by p.Arg385Tyr. […] (B) The side chain of the highly conserved Arg385 is predicted to be in proximity to the side chain of the highly conserved Tyr750 residue. (C) MLH1-PMS2-deficient HEK293T cells were co-transfected with the indicated single- and double variants of MLH1 and PMS2. Protein extracts were prepared, separated by SDS-PAGE, blotted and probed for MLH1 protein expression. (D) MMR assays were performed to test DNA mismatch repair activity as detailed in Materials and Methods. One representative agarose gel is shown, and average repair values in comparison to wildtype and standard deviations of >3 independent experiments are shown in a bar diagram. A two-sided t-test was performed for testing significance of the difference in repair activity of p.Tyr750Arg in comparison to the double variant p.Arg385Tyr + Tyr750Arg.
Mismatched DNA plasmid substrate and principle of MMR assay.
The MMR assay is performed using as substrate a modified 2 kbp derivative of the pUC vector (pUC
CPDC Bb v) originally generated by Wang and Hays and further modified by Plotz et al. and Gonzáles-
Acosta et al . […]

Results on six molecules are retold here after paper PMC10325900, “A conserved motif in the disordered linker of human MLH1 is vital for DNA mismatch repair and its function is diminished by a cancer family mutation” (Nucleic Acids Research, 2023).

“Also recorded” adds a separate entry of the source.

For “p.Arg385Pro: human MLH1 missense variant in the MVRTD motif”, the “DNA mismatch repair activity of MLH1 variant (in words)” value (from here on “DNA mismatch repair activity”) is reported as “a defect similarly strong as the core-scramble variant; also recorded: most pronounced effect; also recorded: mismatch repair defect”. Further, the “DNA mismatch repair activity” value (listed as proline substitution of Arg385) is listed as “loss of mismatch repair activity”. “ΔConMot: deletion variant in which the conserved ConMot sequence comprising 20 residues was removed”: the “DNA mismatch repair activity” value is reported as “fully abrogated mismatch repair”. Moreover, the “DNA mismatch repair activity” value (listed as deletion) is “complete loss of MMR activity”. Further, for the setting “listed as deletion of the ConMot”, the “DNA mismatch repair activity” value is reported as “fully deficient in MMR”.

B1: p.Arg385Tyr: MLH1 variant (protein, UniProt P40692 2-756, looked up, variant R385Y)
DNA mismatch repair protein …: SFVAGVIRRLDETVVNRIAAGEVIQRPANAIKEMIENCLDAKSTSIQVIVKEGGLKLIQIQDNGTGIRKEDLDIVCERFTTSKLQSFEDLASISTYGFRGEALASISHVAHVTITTKTADGKCAYRASYSDGKLKAPPKPCAGNQGTQITVEDLFYNIATRRKALKNPSEEYGKILEVVGRYSVHNAGISFSVKKQGETVADVRTLPNASTVDNIRSIFGNAVSRELIEIGCEDKTLAFKMNGYISNANYSVKKCIFLLFINHRLVESTSLRKAIETVYAAYLPKNTHPFLYLSLEISPQNVDVNVHPTKHEVHFLHEESILERVQQHIESKLLGSNSSRMYFTQTLLPGLAGPSGEMVKSTTSLTSSSTSGSSDKVYAHQMVYTDSREQKLDAFLQPLSKPLSSQPQAIVTEDKTDISSGRARQQDEEMLELPAPAEVAAKNQSLEGDTTKGTSEMSEKRGPTSSNPRKRHREDSDVEMVEDDSRKEMTAACTPRRRIINLTSVLSLQEEINEQGHEVLREMLHNHSFVGCVNPQWALAQHQTKLYLLNTTKLSEELFYQILIYDFANFGVLRLSEPAPLFDLAMLALDSPESGWTEEDGPKEGLAEYIVEFLKKKAEMLADYFSLEIDEEGNLIGLPLLIDNYVPPLEGLPIFILRLATEVNWDEEKECFESLSKECAMFYSIRKQYISEESTLSGQQSEVPGSIPNSWKWTVEHIVYKALRSHILPPKHFTEDGNILQLANLPDLYKVFERC
Consider B1, for which the “DNA mismatch repair activity” value is given as “well tolerated”.

B2: p.Arg385His: human MLH1 missense variant, c.1154G>A (protein, UniProt P40692 2-756, looked up, variant R385H)
DNA mismatch repair protein …: SFVAGVIRRLDETVVNRIAAGEVIQRPANAIKEMIENCLDAKSTSIQVIVKEGGLKLIQIQDNGTGIRKEDLDIVCERFTTSKLQSFEDLASISTYGFRGEALASISHVAHVTITTKTADGKCAYRASYSDGKLKAPPKPCAGNQGTQITVEDLFYNIATRRKALKNPSEEYGKILEVVGRYSVHNAGISFSVKKQGETVADVRTLPNASTVDNIRSIFGNAVSRELIEIGCEDKTLAFKMNGYISNANYSVKKCIFLLFINHRLVESTSLRKAIETVYAAYLPKNTHPFLYLSLEISPQNVDVNVHPTKHEVHFLHEESILERVQQHIESKLLGSNSSRMYFTQTLLPGLAGPSGEMVKSTTSLTSSSTSGSSDKVYAHQMVHTDSREQKLDAFLQPLSKPLSSQPQAIVTEDKTDISSGRARQQDEEMLELPAPAEVAAKNQSLEGDTTKGTSEMSEKRGPTSSNPRKRHREDSDVEMVEDDSRKEMTAACTPRRRIINLTSVLSLQEEINEQGHEVLREMLHNHSFVGCVNPQWALAQHQTKLYLLNTTKLSEELFYQILIYDFANFGVLRLSEPAPLFDLAMLALDSPESGWTEEDGPKEGLAEYIVEFLKKKAEMLADYFSLEIDEEGNLIGLPLLIDNYVPPLEGLPIFILRLATEVNWDEEKECFESLSKECAMFYSIRKQYISEESTLSGQQSEVPGSIPNSWKWTVEHIVYKALRSHILPPKHFTEDGNILQLANLPDLYKVFERC
With B2, the “DNA mismatch repair activity” value is recorded as “tolerated; also recorded: did not affect catalytic activity”.

B3: p.Arg385Ala: MLH1 control variant (protein, UniProt P40692 2-756, looked up, variant R385A)
DNA mismatch repair protein …: SFVAGVIRRLDETVVNRIAAGEVIQRPANAIKEMIENCLDAKSTSIQVIVKEGGLKLIQIQDNGTGIRKEDLDIVCERFTTSKLQSFEDLASISTYGFRGEALASISHVAHVTITTKTADGKCAYRASYSDGKLKAPPKPCAGNQGTQITVEDLFYNIATRRKALKNPSEEYGKILEVVGRYSVHNAGISFSVKKQGETVADVRTLPNASTVDNIRSIFGNAVSRELIEIGCEDKTLAFKMNGYISNANYSVKKCIFLLFINHRLVESTSLRKAIETVYAAYLPKNTHPFLYLSLEISPQNVDVNVHPTKHEVHFLHEESILERVQQHIESKLLGSNSSRMYFTQTLLPGLAGPSGEMVKSTTSLTSSSTSGSSDKVYAHQMVATDSREQKLDAFLQPLSKPLSSQPQAIVTEDKTDISSGRARQQDEEMLELPAPAEVAAKNQSLEGDTTKGTSEMSEKRGPTSSNPRKRHREDSDVEMVEDDSRKEMTAACTPRRRIINLTSVLSLQEEINEQGHEVLREMLHNHSFVGCVNPQWALAQHQTKLYLLNTTKLSEELFYQILIYDFANFGVLRLSEPAPLFDLAMLALDSPESGWTEEDGPKEGLAEYIVEFLKKKAEMLADYFSLEIDEEGNLIGLPLLIDNYVPPLEGLPIFILRLATEVNWDEEKECFESLSKECAMFYSIRKQYISEESTLSGQQSEVPGSIPNSWKWTVEHIVYKALRSHILPPKHFTEDGNILQLANLPDLYKVFERC
With B3, the “effect of second p.Arg385 alteration on the MMR defect of p.Tyr750Arg” value is reported as “additionally aggravated the defect” and the “DNA mismatch repair activity” value is “a defect similarly strong as the core-scramble variant”.

B4: p.Arg385Glu: MLH1 control variant (protein, UniProt P40692 2-756, looked up, variant R385E)
DNA mismatch repair protein …: SFVAGVIRRLDETVVNRIAAGEVIQRPANAIKEMIENCLDAKSTSIQVIVKEGGLKLIQIQDNGTGIRKEDLDIVCERFTTSKLQSFEDLASISTYGFRGEALASISHVAHVTITTKTADGKCAYRASYSDGKLKAPPKPCAGNQGTQITVEDLFYNIATRRKALKNPSEEYGKILEVVGRYSVHNAGISFSVKKQGETVADVRTLPNASTVDNIRSIFGNAVSRELIEIGCEDKTLAFKMNGYISNANYSVKKCIFLLFINHRLVESTSLRKAIETVYAAYLPKNTHPFLYLSLEISPQNVDVNVHPTKHEVHFLHEESILERVQQHIESKLLGSNSSRMYFTQTLLPGLAGPSGEMVKSTTSLTSSSTSGSSDKVYAHQMVETDSREQKLDAFLQPLSKPLSSQPQAIVTEDKTDISSGRARQQDEEMLELPAPAEVAAKNQSLEGDTTKGTSEMSEKRGPTSSNPRKRHREDSDVEMVEDDSRKEMTAACTPRRRIINLTSVLSLQEEINEQGHEVLREMLHNHSFVGCVNPQWALAQHQTKLYLLNTTKLSEELFYQILIYDFANFGVLRLSEPAPLFDLAMLALDSPESGWTEEDGPKEGLAEYIVEFLKKKAEMLADYFSLEIDEEGNLIGLPLLIDNYVPPLEGLPIFILRLATEVNWDEEKECFESLSKECAMFYSIRKQYISEESTLSGQQSEVPGSIPNSWKWTVEHIVYKALRSHILPPKHFTEDGNILQLANLPDLYKVFERC
On to B4, for which the “effect of second p.Arg385 alteration on the MMR defect of p.Tyr750Arg” value is “additionally aggravated the defect” and the “DNA mismatch repair activity” value is “a defect similarly strong as the core-scramble variant”.
